Measured values published in the supplement of paper PMC5998384.

Experiments:
HeLa Kyoto [1] = experiment: solubility in G1/S (NP-40 vs SDS abundance) (log2 ratio); higher = more soluble; details: cell cycle stage: G1/S
HeLa Kyoto [2] = experiment: melting temperature (median over replicates), in situ; higher = more thermally stable
HeLa Kyoto [3] = experiment: solubility change mitosis vs G1/S (difference of NP-40 vs SDS log2 ratios) (log2 ratio difference); higher = more soluble in mitosis
HeLa Kyoto [4] = experiment: thermal stability score vs G1/S (z-score of summed log2 fold changes over temperatures); higher = more thermally stable than in G1/S
[5] = cell cycle stage: early G1 (4.5 h after nocodazole release)
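Throughout, for melting temperature (median over replicates), in situ: HeLa Kyoto cells synchronized by double thymidine or nocodazole block, proteins quantified by TMT10plex mass spectrometry, three independent biological replicates.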
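Throughout, for solubility change mitosis vs G1/S (difference of NP-40 vs SDS log2 ratios): synchronized HeLa Kyoto cells (double thymidine block for G1/S, nocodazole release for mitosis), protein amounts in NP-40 versus SDS lysates quantified by mass spectrometry, three biological replicates.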
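Throughout, for solubility in G1/S (NP-40 vs SDS abundance): HeLa Kyoto cells arrested at G1/S by double thymidine block, proteins quantified by TMT10plex mass spectrometry in mild NP-40 versus SDS extracts, three biological replicates.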
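Throughout, for thermal stability score vs G1/S (z-score of summed log2 fold changes over temperatures): synchronized HeLa Kyoto cells, proteins quantified by TMT10plex mass spectrometry, three biological replicates, mitosis taken 0.5 h after nocodazole release, G1/S directly after double thymidine block.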

Sequence of POLD2 (chain, as listed by the source): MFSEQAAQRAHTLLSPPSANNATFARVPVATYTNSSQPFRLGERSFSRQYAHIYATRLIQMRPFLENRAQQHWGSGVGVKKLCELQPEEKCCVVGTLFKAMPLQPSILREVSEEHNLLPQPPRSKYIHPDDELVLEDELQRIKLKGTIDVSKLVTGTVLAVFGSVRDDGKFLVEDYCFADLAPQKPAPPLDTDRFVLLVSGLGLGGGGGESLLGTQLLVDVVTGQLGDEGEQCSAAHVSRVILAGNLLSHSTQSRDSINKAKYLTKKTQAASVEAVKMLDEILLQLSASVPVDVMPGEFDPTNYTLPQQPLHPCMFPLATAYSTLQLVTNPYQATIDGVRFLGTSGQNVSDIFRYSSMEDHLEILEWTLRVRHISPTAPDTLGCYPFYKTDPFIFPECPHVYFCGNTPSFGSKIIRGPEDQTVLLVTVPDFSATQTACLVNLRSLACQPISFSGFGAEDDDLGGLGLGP

Substance	solubility in G1/S (log2) (HeLa Kyoto [1])	melting temperature (HeLa Kyoto [2]; cell cycle stage: G1/S) [°C]	melting temperature (HeLa Kyoto [2]; cell cycle stage: mitosis) [°C]	solubility change mitosis (log2) (HeLa Kyoto [3])	thermal stability score (HeLa Kyoto [4]; [5])	thermal stability score (HeLa Kyoto [4]; cell cycle stage: mitosis)
MAESPTEEAATAGAGAAGPGASSVAGVVGVSGSGGGFGPPFLPDVWAAAAAAGGAGGPGSGLAPLPGLPPSAAAHGAALLSHWDPTLSSDWDGERTAPQCLLRIKRDIMSIYKEPPPGMFVVPDTVDMTKIHALITGPFDTPYEGGFFLFVFRCPPDYPIHPPRVKLMTTGNNTVRFNPNFYRNGKVCLSILGTWTGPAWSPAQSISSVLISIQSLMTENPYHNEPGFEQERHPGDSKNYNECIRHETIRVAVCDMMEGKCPCPEPLRGVMEKSFLEYYDFYEVACKDRLHLQGQTMQDPFGEKRGHFDYQSLLMRLGLIRQKVLERLHNENAEMDSDSSSSGTETDLHGSLRV [UBE2Z]	0.403	52.7	52.8	-0.169	-0.171	-0.398
MSGQPPPPPPQQQQQQQQLSPPPPAALAPVSGVVLPAPPAVSAGSSPAGSPGGGAGGEGLGAAAAALLLHPPPPPPPATAAPPPPPPPPPPPASAAAPASGPPAPPGLAAGPGPAGGAPTPALVAGSSAAAPFPHGDSALNEQEKELQRRLKRLYPAVDEQETPLPRSWSPKDKFSYIGLSQNNLRVHYKGHGKTPKDAASVRATHPIPAACGIYYFEVKIVSKGRDGYMGIGLSAQGVNMNRLPGWDKHSYGYHGDDGHSFCSSGTGQPYGPTFTTGDVIGCCVNLINNTCFYTKNGHSLGIAFTDLPPNLYPTVGLQTPGEVVDANFGQHPFVFDIEDYMREWRTKIQAQIDRFPIGDREGEWQTMIQKMVSSYLVHHGYCATAEAFARSTDQTVLEELASIKNRQRIQKLVLAGRMGEAIETTQQLYPSLLERNPNLLFTLKVRQFIEMVNGTDSEVRCLGGRSPKSQDSYPVSPRPFSSPSMSPSHGMNIHNLASGKGSTAHFSGFESCSNGVISNKAHQSYCHSNKHQSSNLNVPELNSINMSRSQQVNNFTSNDVDMETDHYSNGVGETSSNGFLNGSSKHDHEMEDCDTEMEVDSSQLRRQLCGGSQAAIERMIHFGRELQAMSEQLRRDCGKNTANKKMLKDAFSLLAYSDPWNSPVGNQLDPIQREPVCSALNSAILETHNLPKQPPLALAMGQATQCLGLMARSGIGSCAFATVEDYLH [RANBP9]	0.115	51.6	51.1	-0.126	-0.277	-0.378
MELGSCLEGGREAAEEEGEPEVKKRRLLCVEFASVASCDAAVAQCFLAENDWEMERALNSYFEPPVEESALERRPETISEPKTYVDLTNEETTDSTTSKISPSEDTQQENGSMFSLITWNIDGLDLNNLSERARGVCSYLALYSPDVIFLQEVIPPYYSYLKKRSSNYEIITGHEEGYFTAIMLKKSRVKLKSQEIIPFPSTKMMRNLLCVHVNVSGNELCLMTSHLESTRGHAAERMNQLKMVLKKMQEAPESATVIFAGDTNLRDREVTRCGGLPNNIVDVWEFLGKPKHCQYTWDTQMNSNLGITAACKLRFDRIFFRAAAEEGHIIPRSLDLLGLEKLDCGRFPSDHWGLLCNLDIIL [TDP2]	0.116	49.7	51.7	-0.193	-0.731	-0.039
MEGPGLGSQCRNHSHGPHPPGFGRYGICAHENKELANAREALPLIEDSSNCDIVKATQYGIFERCKELVEAGYDVRQPDKENVSLLHWAAINNRLDLVKFYISKGAVVDQLGGDLNSTPLHWAIRQGHLPMVILLLQHGADPTLIDGEGFSSIHLAVLFQHMPIIAYLISKGQSVNMTDVNGQTPLMLSAHKVIGPEPTGFLLKFNPSLNVVDKIHQNTPLHWAVAAGNVNAVDKLLEAGSSLDIQNVKGETPLDMALQNKNQLIIHMLKTEAKMRANQKFRLWRWLQKCELFLLLMLSVITMWAIGYILDFNSDSWLLKGCLLVTLFFLTSLFPRFLVGYKNLVYLPTAFLLSSVFWIFMTWFILFFPDLAGAPFYFSFIFSIVAFLYFFYKTWATDPGFTKASEEEKKVNIITLAETGSLDFRTFCTSCLIRKPLRSLHCHVCNCCVARYDQHCLWTGRCIGFGNHHYYIFFLFFLSMVCGWIIYGSFIYLSSHCATTFKEDGLWTYLNQIVACSPWVLYILMLATFHFSWSTFLLLNQLFQIAFLGLTSHERISLQKQSKHMKQTLSLRKTPYNLGFMQNLADFFQCGCFGLVKPCVVDWTSQYTMVFHPAREKVLRSV [ZDHHC13]	0.0826	51.6	51.4	-0.158	-0.948	-1.02
GMPS	0.0167	51.1	51.6	-0.148	2.38	1.21
MDRSKENCISGPVKATAPVGGPKRVLVTQQFPCQNPLPVNSGQAQRVLCPSNSSQRIPLQAQKLVSSHKPVQNQKQKQLQATSVPHPVSRPLNNTQKSKQPLPSAPENNPEEELASKQKNEESKKRQWALEDFEIGRPLGKGKFGNVYLAREKQSKFILALKVLFKAQLEKAGVEHQLRREVEIQSHLRHPNILRLYGYFHDATRVYLILEYAPLGTVYRELQKLSKFDEQRTATYITELANALSYCHSKRVIHRDIKPENLLLGSAGELKIADFGWSVHAPSSRRTTLCGTLDYLPPEMIEGRMHDEKVDLWSLGVLCYEFLVGKPPFEANTYQETYKRISRVEFTFPDFVTEGARDLISRLLKHNPSQRPMLREVLEHPWITANSSKPSNCQNKESASKQS [AURKA]	-0.00432	50	50.8	-0.0266	-0.0408	-0.506
MGNCHTVGPNEALVVSGGCCGSDYKQYVFGGWAWAWWCISDTQRISLEIMTLQPRCEDVETAEGVALTVTGVAQVKIMTEKELLAVACEQFLGKNVQDIKNVVLQTLEGHLRSILGTLTVEQIYQDRDQFAKLVREVAAPDVGRMGIEILSFTIKDVYDKVDYLSSLGKTQTAVVQRDADIGVAEAERDAGIREAECKKEMLDVKFMADTKIADSKRAFELQKSAFSEEVNIKTAEAQLAYELQGAREQQKIRQEEIEIEVVQRKKQIAVEAQEILRTDKELIATVRRPAEAEAHRIQQIAEGEKVKQVLLAQAEAEKIRKIGEAEAAVIEAMGKAEAERMKLKAEAYQKYGDAAKMALVLEALPQIAAKIAAPLTKVDEIVVLSGDNSKVTSEVNRLLAELPASVHALTGVDLSKIPLIKKATGVQV [FLOT2]	-1.04	56.8	55.8	0.153	-2.8	-0.0606
MAASCVLLHTGQKMPLIGLGTWKSEPGQVKAAVKYALSVGYRHIDCAAIYGNEPEIGEALKEDVGPGKAVPREELFVTSKLWNTKHHPEDVEPALRKTLADLQLEYLDLYLMHWPYAFERGDNPFPKNADGTICYDSTHYKETWKALEALVAKGLVQALGLSNFNSRQIDDILSVASVRPAVLQVECHPYLAQNELIAHCQARGLEVTAYSPLGSSDRAWRDPDEPVLLEEPVVLALAEKYGRSPAQILLRWQVQRKVICIPKSITPSRILQNIKVFDFTFSPEEMKQLNALNKNWRYIVPMLTVDGKRVPRDAGHPLYPFNDPY [AKR1A1]	0.534	52.1	52.7	-0.00767	-0.223	-1.09
MCGNTMSVPLLTDAATVSGAERETAAVIFLHGLGDTGHSWADALSTIRLPHVKYICPHAPRIPVTLNMKMVMPSWFDLMGLSPDAPEDEAGIKKAAENIKALIEHEMKNGIPANRIVLGGFSQGGALSLYTALTCPHPLAGIVALSCWLPLHRAFPQAANGSAKDLAILQCHGELDPMVPVRFGALTAEKLRSVVTPARVQFKTYPGVMHSSCPQEMAAVKEFLEKLLPPV [LYPLA2]	0.543	53.3	53	0.185	-1.02	0.00875
POLD2	0.263	49.9	49.5	-0.136	1.48	2.07
MVVFVGRRLPALLGLFKKKGSAKAENDKHLSVGPGQGPGSAVDEHQDNVFFPSGRPPHLEELHTQAQEGLRSLQHQEKQKLNKGGWDHGDTQSIQSSRTGPDEDNISFCSQTTSYVAESSTAEDALSIRSEMIQRKGSTFRPHDSFPKSGKSGRRRRERRSTVLGLPQHVQKELGLRNEREAPGTPRAPGARDAVRIPTVDGRPRGTSGMGARVSLQALEAEAEAGAETEAMLQRHIDRVYRDDTFVGRSTGTRAPPLTRPMSLAVPGLTGGAGPAEPLSPAMSISPQATYLSKLIPHAVLPPTVDVVALGRCSLRTLSRCSLHSASPASVRSLGRFSSVSSPQPRSRHPSSSSDTWSHSQSSDTIVSDGSTLSSKGGSEGQPESSTASNSVVPPPQGGSGRGSPSGGSTAEASDTLSIRSSGQLSGRSVSLRKLKRPPPPPRRTHSLHQRGLAVPDGPLGLPPKPERKQQPQLPRPPTTGGSEGAGAAPCPPNPANSWVPGLSPGGSRRPPRSPERTLSPSSGYSSQSGTPTLPPKGLAGPPASPGKAQPPKPERVTSLRSPGASVSSSLTSLCSSSSDPAPSDRSGPQILTPLGDRFVIPPHPKVPAPFSPPPSKPRSPNPAAPALAAPAVVPGPVSTTDASPQSPPTPQTTLTPLQESPVISKDQSPPPSPPPSYHPPPPPTKKPEVVVEAPSASETAEEPLQDPNWPPPPPPAPEEQDLSMADFPPPEEAFFSVASPEPAGPSGSPELVSSPAASSSSATALQIQPPGSPDPPPAPPAPAPASSAPGHVAKLPQKEPVGCSKGGGPPREDVGAPLVTPSLLQMVRLRSVGAPGGAPTPALGPSAPQKPLRRALSGRASPVPAPSSGLHAAVRLKACSLAASEGLSSAQPNGPPEAEPRPPQSPASTASFIFSKGSRKLQLERPVSPETQADLQRNLVAELRSISEQRPPQAPKKSPKAPPPVARKPSVGVPPPASPSYPRAEPLTAPPTNGLPHTQDRTKRELAENGGVLQLVGPEEKMGLPGSDSQKELA [KIAA1522]	0.188	52	52.4	-0.199	0.117	0.588
MVWPWVAMASRWGPLIGLAPCCLWLLGAVLLMDASARPANHSSTRERVANREENEILPPDHLNGVKLEMDGHLNRGFHQEVFLGKDLGGFDEDAEPRRSRRKLMVIFSKVDVNTDRKISAKEMQRWIMEKTAEHFQEAMEESKTHFRAVDPDGDGHVSWDEYKVKFLASKGHSEKEVADAIRLNEELKVDEETQEVLENLKDRWYQADSPPADLLLTEEEFLSFLHPEHSRGMLRFMVKEIVRDLDQDGDKQLSVPEFISLPVGTVENQQGQDIDDNWVKDRKKEFEELIDSNHDGIVTAEELESYMDPMNEYNALNEAKQMIAVADENQNHHLEPEEVLKYSEFFTGSKLVDYARSVHEEF [SDF4]	0.52	52.8	53.9	-0.0276	2.12	3
MAAAAAQGGGGGEPRRTEGVGPGVPGEVEMVKGQPFDVGPRYTQLQYIGEGAYGMVSSAYDHVRKTRVAIKKISPFEHQTYCQRTLREIQILLRFRHENVIGIRDILRASTLEAMRDVYIVQDLMETDLYKLLKSQQLSNDHICYFLYQILRGLKYIHSANVLHRDLKPSNLLINTTCDLKICDFGLARIADPEHDHTGFLTEYVATRWYRAPEIMLNSKGYTKSIDIWSVGCILAEMLSNRPIFPGKHYLDQLNHILGILGSPSQEDLNCIINMKARNYLQSLPSKTKVAWAKLFPKSDSKALDLLDRMLTFNPNKRITVEEALAHPYLEQYYDPTDEPVAEEPFTFAMELDDLPKERLKELIFQETARFQPGVLEAP [MAPK3]	0.391	51.3	50.2	-0.228	-0.246	-0.247
